Positions count from the first letter of the chain named.
B1: 3E2.1_GS_4G8.5 (bispecific antibody, human IgG1, kappa, L234A L235A)
heavy: EVQLVQSGAEVKKPGSSVKVSCKASGYTFTESYMYWVKQAPGQGLELIGRIDPEDGSTDYVEKFKNKATLTADKSTSTAYMELSSLRSEDTAVYFCARFGARSYFYPMDAWGQGTTVTVSSGGGGSGGGGSEIQLVQSGSELKKPGASVKVSCKASGYTFTNYGMYWVRQAPGQGLEYMGWINTETGKPTYADDFKGRFVFSLDTSVSTAYLQISSLKAEDTAVYFCARTNYYYRSYIFYFDYWGQGTMVTVSSASTKGPSVFPLAPSSKSTSGGTAALGCLVKDYFPEPVTVSWNSGALTSGVHTFPAVLQSSGLYSLSSVVTVPSSSLGTQTYICNVNHKPSNTKVDKKVEPKSCDKTHTCPPCPAPEAAGGPSVFLFPPKPKDTLMISRTPEVTCVVVDVSHEDPEVKFNWYVDGVEVHNAKTKPREEQYNSTYRVVSVLTVLHQDWLNGKEYKCKVSNKALPAPIEKTISKAKGQPREPQVYTLPPSREEMTKNQVSLTCLVKGFYPSDIAVEWESNGQPENNYKTTPPVLDSDGSFFLYSKLTVDKSRWQQGNVFSCSVMHEALHNAYTQKSLSLSPGK
light: ETVLTQSPATLSLSPGERATLSCRASESVSTLMHWYQQKPGQQPRLLIYGASNLESGVPARFSGSGSGTDFTLTISSLEPEDFAVYFCQQSWNDPWTFGGGTKVEIKGGSGGGGSGGATQLTQSPSLSASVGDRVTITCRASESVSTHMHWYQQKPGKQPKLLIYGASNLESGVPSRFSGSGSGTDFTLTISSLQPEDFATYFCQQSWNDPFTFGQGTKLEIKRTVAAPSVFIFPPSDEQLKSGTASVVCLLNNFYPREAKVQWKVDNALQSGNSQESVTEQDSKDSTYSLSSTLTLSKADYEKHKVYACEVTHQGLSSPVTKSFNRGEC
B2: hBDI-5H1.3 (antibody, V domains shown)
VH: EVTLRESGPALVKPTQTLTLTCTFSGFSLSTFGMGVGWIRQPPGKALEWLANIWWDDDKYYNPSLKNRLTISKDTSKNQVVLTMTNMDPVDTATYYCARISTGISSYYVMDAWGQGTTVTVSS
VL: EIVLTQSPGTLSLSPGERATLSCERSSGDIGDTYVSWYQQKPGQAPRLLIYGNDQRPSGIPDRFSGSGSGTDFTLTISRLEPEDFAVYYCQSYDSDIDIVFGGGTKVEIK
B3: hBDI-5H1.16 (antibody, V domains shown)
VH: B2 VH with R5K, A46G, K77N, N78S, V80A, M84I
VL: B2 VL with I2F, A45P, L48N, L49V, I60V, Y89F
B4: hBDI-5H1.7 (antibody, V domains shown)
VH: B2 VH with R5K, V80A, M84I
VL: B2 VL
B5: hBDI-5H1.17 (antibody, V domains shown)
VH: B2 VH with R5K, A46G, K77N, N78S, V80A, M84I
VL: B2 VL with I2F, T33S, L49V, G52A, N53D, S95I, D96N
B6: hBDI-5H1.4 (antibody, V domains shown)
VH: B2 VH
VL: B2 VL with I2F, L49V
B7: hBDI-5H1.8 (antibody, V domains shown)
VH: B2 VH with R5K, V80A, M84I
VL: B2 VL with I2F, L49V
B8: hBDI-5H1.9 (antibody, V domains shown)
VH: B2 VH with V80A, M84I
VL: DFVLTQSPDSLAVSLGERATINCERSSGDIGDTYVSWYQQKPGQPPKNVIYGNDQRPSGVPDRFSGSGSGNSATLTISSLQAEDVAVYFCQSYDSDIDIVFGGGTKVEIK
B9: hBDI-9E8.1 (antibody, V domains shown)
VH: EVTLRESGPALVKPTQTLTLTCTFSGFSLSTYGMGVGWIRQPPGKALEWLANIWWDDDKYYNPSLKNRLTISKDTSKNQVVLTMTNMDPVDTATYYCARIESIGTTYSFDYWGQGTMVTVSS
VL: NFMLTQPHSVSESPGKTVTISCERSSGDIGDSYVSWYQQRPGSSPTTVIYADDQRPSGVPDRFSGSIDSSSNSASLTISGLKTEDEADYYCQSYDINIDIVFGGGTKLTVL
B10: hBDI-5H1.1 (antibody, V domains shown)
VH: B2 VH
VL: B9 VL with S32T, A51G, D52N, I96S, N97D
B11: hBDI-9E8.4 half body (other)
VH: B9 VH
VL: B2 VL with I2F, T33S, L49V, G52A, N53D, S95I, D96N
B12: hBDI-9E8.3 (antibody, V domains shown)
VH: B9 VH
VL: B2 VL with T33S, G52A, N53D, S95I, D96N
B13: hBDI-9E8.9 (antibody, V domains shown)
VH: B9 VH with V80A, M84I, M117T
VL: B8 VL with T33S, G52A, N53D, T74S, S95I, D96N
B14: hBDI-9E8.10 (antibody, V domains shown)
VH: B9 VH with V80A, M84I, M117T
VL: DFQLTQSPSSLSASVGDRVTITCERSSGDIGDSYVSWYQQKPGKAPKNVIYADDQRPSGVPSRFSGSGSGNSASLTISSLQPEDFATYYCQSYDINIDIVFGQGTKVEIK
B15: hBDI-9E8.7 (antibody, V domains shown)
VH: B9 VH with A46G, V80A, M84I
VL: B2 VL with T33S, G52A, N53D, S95I, D96N
B16: hBDI-9E8.6 (antibody, V domains shown)
VH: B9 VH with A46G, V80A, M84I
VL: B9 VL with S44P, T47N, Y90F
B17: hBDI-9E8.5 (antibody, V domains shown)
VH: B9 VH with A46G, V80A, M84I
VL: B9 VL
B18: hBDI-9E8.2 (antibody, V domains shown)
VH: B9 VH
VL: B9 VL with S44P, T47N, Y90F
B19: hBDI-9E8.8 (antibody, V domains shown)
VH: B9 VH with A46G, V80A, M84I
VL: B2 VL with I2F, T33S, L49V, G52A, N53D, S95I, D96N
B20: hBDI-5H1.2 (antibody, V domains shown)
VH: B2 VH
VL: B9 VL with S32T, S44P, T47N, A51G, D52N, Y90F, I96S, N97D
B21: hBDI-5H1.6 (antibody, V domains shown)
VH: B2 VH with R5K, V80A, M84I
VL: B9 VL with S32T, S44P, T47N, A51G, D52N, Y90F, I96S, N97D
B22: hBDI-5H1.5 (antibody, V domains shown)
VH: B2 VH with R5K, V80A, M84I
VL: B9 VL with S32T, A51G, D52N, I96S, N97D
B23: hBDI-5H1.11 (antibody, V domains shown)
VH: EVQLVESGGGLVQPGGSLRLSCAFSGFSLSTFGMGVGWIRQAPGKGLEWLANIWWDDDKYYNPSLKNRLTISKDTSKNQAYLQINSLRAEDTAVYYCARISTGISSYYVMDAWGQGTLVTVSS
VL: B8 VL
B24: hBDI-9E8.12 (antibody, V domains shown)
VH: EVQLVESGGGLVQPGGSLRLSCAFSGFSLSTYGMGVGWIRQAPGKGLEWLANIWWDDDKYYNPSLKNRLTISKDTSKNQAYLQINSLRAEDTAVYYCARIESIGTTYSFDYWGQGTLVTVSS
VL: B14 VL
B25: hBDI-5H1.13 (antibody, V domains shown)
VH: B2 VH with R5K, V80A, M84I
VL: B14 VL with S33T, A52G, D53N, S74T, Y89F, I95S, N96D
B26: hBDI-5H1.12 (antibody, V domains shown)
VH: B23 VH
VL: B14 VL with S33T, A52G, D53N, S74T, Y89F, I95S, N96D
B27: hBDI-5H1.10 (antibody, V domains shown)
VH: B2 VH with V80A, M84I
VL: B14 VL with S33T, A52G, D53N, S74T, Y89F, I95S, N96D

Target: recombinant human VEGF165 (human, UniProt P15692 207-395)
Assay: cell-based or functional assay

Sequence of recombinant human VEGF165 (P15692 other isoform, or with tags, fused parts or gaps limits assumed): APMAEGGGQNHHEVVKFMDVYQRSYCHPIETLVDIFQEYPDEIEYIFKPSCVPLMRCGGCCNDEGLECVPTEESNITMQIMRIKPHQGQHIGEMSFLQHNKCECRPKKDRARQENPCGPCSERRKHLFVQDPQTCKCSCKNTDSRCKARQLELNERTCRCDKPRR

Binder	Potency IC50 (nM) HMVEC-d hVEGF165 [nM]
B1	0.743

Target: recombinant human PDGF-BB (human, UniProt P01127 82-190)
Assay: cell-based or functional assay
Target sequence in this assay (P01127 82-190 limits assumed): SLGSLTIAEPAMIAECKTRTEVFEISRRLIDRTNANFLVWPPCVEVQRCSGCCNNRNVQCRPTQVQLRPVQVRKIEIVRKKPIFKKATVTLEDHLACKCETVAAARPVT

Binder	Potency IC50 (nM) NIH-3T3 hPDGF-BB [nM]
B1	0.38

Target: recombinant human PDGF-BB (human, UniProt P01127 82-190)
Assay: cell-based or functional assay
Remark: another data set of the same source
Target sequence in this assay (P01127 82-190 limits assumed): as above

Binder	hPDGF-BB IC50 (nM), hPDGF-BB-induced NIH-3T3 cell proliferation [nM]
B2	< 10
B3	< 10
B4	< 10
B5	< 10
B6	< 10
B7	< 10
B8	< 10
B9	> 5
B10	< 10
B11	> 5
B12	1.58
B13	0.574
B14	0.562
B15	0.35
B16	> 5
B17	> 5
B18	> 5
B19	0.105
B20	< 10
B21	< 10
B22	< 10
B23	< 10
B24	0.525
B25	< 10
B26	< 10
B27	< 10
